Article PMC7925086

Biological target: Leishmania RNA virus 1 isolate LRV1-4 major capsid protein (Leishmania RNA virus 1 (isolate LRV1-4, from Leishmania guyanensis strain M5313))
Assay: cryo-EM structure; single-particle reconstruction of purified LRV1 virus-like particles, 0.16 mg/ml, in 20 mM sodium phosphate pH 7.4, 300 mM NaCl, 5 mM beta-mercaptoethanol; icosahedral symmetry; 3.65 Å

“Leishmania RNA virus 1 isolate LRV1-4 major capsid protein (natural protein)” was tested, and the stoichiometry N was 120 copies.
